Experimental data reported in US20100278929A1 (MEDLMMUNE, published 2010).

Columns and labels:
[1] = biological target: T1, RSV (Long strain) F protein on infectious virus (respiratory syncytial virus (Long …, UniProt P12568 26-574)); test: cell-based or functional assay
[2] = biological target: T1, RSV (Long strain) F protein on …; test: cell-based or functional assay; remark: listed apart in the source
[3] = biological target: T1, RSV (Long strain) F protein on …; test: cell-based or functional assay; remark: listed apart in the source
[4] = biological target: T2, recombinantly produced, C-terminally truncated RSV (A2 strain) F protein (respiratory syncytial virus (A2 strain), UniProt P03420 26-524); test: SPR, BIAcore 3000; F protein coupled at low density to CM5 chip; KD = koff/kon
T2 construct: extracellular domain; also called RSV F protein; truncated F protein
T2 sequence (P03420 26-109, chain 1 of 2): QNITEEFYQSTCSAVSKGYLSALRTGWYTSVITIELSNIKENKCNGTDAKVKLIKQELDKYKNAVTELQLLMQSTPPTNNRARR
T2 sequence (P03420 137-524, chain 2 of 2): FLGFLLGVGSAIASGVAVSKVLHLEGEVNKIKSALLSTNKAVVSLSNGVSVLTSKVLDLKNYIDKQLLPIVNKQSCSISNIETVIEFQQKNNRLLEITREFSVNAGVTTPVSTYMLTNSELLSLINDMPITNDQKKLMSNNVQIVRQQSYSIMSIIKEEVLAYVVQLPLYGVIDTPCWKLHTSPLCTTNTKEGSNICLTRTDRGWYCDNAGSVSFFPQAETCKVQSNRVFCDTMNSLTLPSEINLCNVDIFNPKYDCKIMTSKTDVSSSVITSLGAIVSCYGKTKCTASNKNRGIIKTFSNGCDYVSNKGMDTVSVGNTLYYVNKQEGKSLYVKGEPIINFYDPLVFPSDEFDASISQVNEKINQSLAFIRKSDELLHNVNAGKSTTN
Protocol: (§1) Purified F protein was covalently coupled to an N-hydroxysuccinimide-N-ethyl-N′-[3-diethylaminopropyl]-carbodiimide (EDC/NHS) activated CM5 sensor chip at a low protein density according to the manufacturer's protocol; unreacted active ester groups were blocked with 1 M ethanolamine. For reference purposes, a blank surface, containing no antigen, was prepared under identical immobilization conditions.
(§2) For kinetic measurements, a serial 2-fold dilution series of each mAb from 100 nm-0.2 nm, made in instrument buffer (HBS/Tween-20, BIAcore, Inc.), was injected over the F-protein and reference cell surfaces, which are connected in series. In each analysis, following the dissociation phase, the remaining bound antibody was removed from the sensor chip by passing a brief pulse of 100 mM HCl over the surface. Once an entire data set was collected, the resulting binding curves were globally fitted to a 1:1 Langmuir binding model using BIAevaluation software (BIAcore, Inc., Piscataway, N.J.). This algorithm calculates both the association rate (kₒₙ) and the dissociation rate (koff), from which the apparent equilibrium binding constant, KD, for each antibody was deduced as the ratio of the two rate constants, koff/kₒₙ.

[5] = biological target: T2, recombinantly produced, C-terminally …; test: SPR, BIAcore 3000; F protein coupled at low density to CM5 chip, mAb injected at 100-0.2 nM; 1:1 Langmuir fit
Protocol: as §1, §2

[6] = biological target: T1, RSV (Long strain) F protein on …; test: cell-based or functional assay; remark: listed apart in the source

Binder | average IC50, RSV microneutralization assay [1] [µg/mL] | Mean IC50 (Control), RSV microneutralization [2] [µg/mL] | Mean IC50 (Curve), RSV microneutralization [2] [µg/mL] | IC50 (read off the curve) [3] [µg/mL] | Kd [4] [nM] | koff [5] [s⁻¹] | kon [5] [M⁻¹ s⁻¹] | fold potency against palivizumab, RSV microneutralization assay [1] [fold] | IC50 (read off the curve); sample: Cyno-69 BAL [6] [µg/mL] | IC50 (read off the curve); sample: purified MEDI-524 control [6] [µg/mL]
palivizumab (antibody, V domains shown, also called SYNAGIS) VH: QVTLRESGPALVKPTQTLTLTCTFSGFSLSTSGMSVGWIRQPPGKALEWLADIWWDDKKDYNPSLKSRLTISKDTSKNQVVLKVTNMDPADTATYYCARSMITNWYFDVWGAGTTVTVSS VL: DIQMTQSPSTLSASVGDRVTITCKCQLSVGYMHWYQQKPGKAPKLLIYDTSKLASGVPSRFSGSGSGTEFTLTISSLQPDDFATYYCFQGSGYPFTFGGGTKLEIK | 0.315 | 0.535 | 0.453 | ~0.4 | 3.46 | 0.000395 | 114000 | – | – | –
A4B4L1FR-S28R (motavizumab) (antibody, V domains shown) VH: QVTLRESGPALVKPTQTLTLTCTFSGFSLSTAGMSVGWIRQPPGKALEWLADIWWDDKKHYNPSLKDRLTISKDTSKNQVVLKVTNMDPADTATYYCARDMIFNFYFDVWGQGTTVTVSS VL: DIQMTQSPSTLSASVGDRVTITCSASSRVGYMHWYQQKPGKAPKLLIYDTSKLASGVPSRFSGSGSGTEFTLTISSLQPDDFATYYCFQGSGYPFTFGGGTKVEIK | 0.018 | – | – | ~0.02 | – | – | – | ~18 | ~0.01 | ~0.007
